The record followed here is the nanobody polyreactivity screen of Harvey et al. (2022).

This series can be described thus: yeast display, Sf9 membrane polyspecificity reagent, FACS + sequencing; frameworks hold sequencing errors. The procedure, abridged: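 A synthetic nanobody library was expressed on Saccharomyces cerevisiae BJ5465 by galactose induction for 36–48 hours. The library was stained for 1 hour at 4 °C with 10% biotinylated, detergent-solubilized Sf9 membrane reagent and enriched with streptavidin microbeads before FACS. Low and high (top ~1%) gates were set on anti-HA fluorescence for expression and streptavidin fluorescence for reagent binding, and each polyreactivity label reflects the gate of origin.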
As for “QVQLVESGGGLVQAGGSLRLSCAASGSILGRNAMGWYRQAPGKERELVAGITWSTVSTYYADSVKGRFTISRDNAKNTVYLQMNSLKPEDTAVYYCAAAPNLWAYRRWYYTYYYWGQGTQVTVSS”, the “polyreactivity (PSR sort gate)” value was “high polyreactivity”.

Turning to “QVQLVESGGGLVQAGGSLRLSCAASGIIFGRNTMGWYRPAPGKERELVAGISSNGGSTYYADSVKGRFTISRDNAKNTVYLQMNRLKPEDTAVYYCAAYYNIPDRRRVGYDYWGQGTQVTVSS”, the “polyreactivity (PSR sort gate)” value is given as “high polyreactivity”.

For the sequence “QVQLVESGGGLVQAGGSLRLSCAASGRIFGFYAMGWYRQAPGKERELVAAITNGGSTYYADSVKGRFTISRDNAKNTVDLQMNSLKPEDTAVYYCNKGRQAHLHITMDYWGQGTQVTLSS”, the “polyreactivity (PSR sort gate)” value is listed as “low polyreactivity”.

Regarding “QVQLVESGGGLVQAGGSLRLSCAASGSTFLTNAMGWYRQAPGKERELVAAIRTSGGSTYYADSVKGRFTISRDNAKNTVYLQMNSLKPEDTAVYYCAASYRRRRFSEYYYWGQGTQVTVSS”, the “polyreactivity (PSR sort gate)” value is given as “high polyreactivity”. The entry for “LVQLVQSGGGLVQAGGSLRLSCAASGLTFDYYAKGWYRQAPGKERELVAVISSGGSTYYADSVKGRITISRDNAKNTVYLQMNSLKTEDTAVYYCAAEIYRYRLRDEYDYWGQGTQVTVSS” is “low polyreactivity”. With “QVQLVESGGGLVQAGGSLRLSCAASGRIFQFYAMGWYRQAPGKERELVASISASGARTYYADSVKGRFTISRDNAKNTVYLQMNSLNPEDTAVYYCNVVYFDGNPEDYEYWGKGTQVTVSS” the entry was “high polyreactivity”. On to “QVQLVESGGGLVQAGGSLRLSCAASGRIFTNYAMGWYRQAPGKERELVAAINWDGGSTYYADSVKGRFTISRDNAKNTVYLQMNSLKPEDTAVYYCAAQGGLSEFDYWGQGTQVTVSS”, for which the “polyreactivity (PSR sort gate)” value is “low polyreactivity”. “QVQLVESGGGLVQAGGSLRLSCAASGRTFWWNAMGWYRQAPGKERELVASISSGGSTNYADSVKGRFTISRDNAKKTVYLQMNSLKPEDTAVYYCARGYRWRGTVSRWSRYYQAHDYWGQGTQVTVSS”: the “polyreactivity (PSR sort gate)” value is recorded as “low polyreactivity”. The entry for “QVQLVESGGGLVQAGGSLRLSCAASGRIFQRYTMGWYRQAPGKEREFVAAITYSGGSTHYADSVKGRFTISRDNAKNTVYLQMNSLKPEDTAVYYCNADRYYGRGYGYWGQGTQVTVSS” is “low polyreactivity”. The entry for “QVHLVESGGGLVQAGGSLRLTCAASGRIFTSYVMGRSRQAPGQVRDLVAAITRSGGSTYYADSVKGRFTISRDNAKNTVYLQMNSLKPEDTAVYYCNALTRRQNGGEGGGYWGQGTHVTVSS” is “high polyreactivity”; for “QVQLVESGGCLVQAGGSLRLSCAASGRILEYYTMGWYRQAPGKERELVAGITSGGTTNYADSVKGRFTISRDNAKNTVYLQMNSLKPEDTAVYYCALKQSYYFGSYFYGHEYYYWGQGTQVTVSS” it is “low polyreactivity”.

With “QVQLVESGGGLVQAGGSLRLSCAASGSILVNMGWYRQPPGKERELVAAIRYGGGRTYYADSVKGRFTISRDNAKNTVYLQMNSLKPEDTAVYYCAASQGRSYYYWGQGTQVTVSS”, the “polyreactivity (PSR sort gate)” value was “low polyreactivity”. With “QVQLVESGGGLVQAGGSLRLSCAASGSIFSYYVMGWYRQAPGKERELVAAITSSGGSTYYADSVKGRFTISRDNAKNTVYLQMNSLKPEDTAVYYCAAYQRSQYRSYPGYEYWGQGTQVTVSS” the entry was “high polyreactivity”; with “QVQLVESGGGLDQAGGSLRLSCAASGRTFTGNAMGWYRQAPGKERELVAAISSRGSSTYYADSVKGRFTISRDNAKNTVYLQMNSLKPEDTAVYYCAAVWPRPKYVYESDYWGQGTQVTVSS”, “high polyreactivity”; with “QVQLVESGGGLVQAGGSLRISCAASGLTFWAYAMGWYRQAPGKEREFLAAISWSGDSTYYADSVKGRFTISRDNAKNTVYLQMNSLKPEDTAVYYCAAEWYYVYIAPYDYWGLGTQVTVSS”, “low polyreactivity”. For the sequence “QVQLVESVGGLVQAGGSLRLSCAASGRTFGRYAMGWYRQAPGKERELVAGISRSGDSTHYADSVKGRFTISRDNAKNTVYLQMNSLKPEDTAVYYCNKETPTNGARKYEYWGQGTQVTVSS”, the “polyreactivity (PSR sort gate)” value was “low polyreactivity”.
